According to article PMC10540216, “Activity Guided Azide-methyllysine Photo-trapping for Substrate Profiling of Lysine Demethylases” (Journal of the American Chemical Society, 2023):

System: KDM4A-I71AzF
Assay: CASI: photo-crosslinking with HEK293T cell extracts, StrepTactin enrichment and LC-MS/MS proteomics;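 also: lysates from HEK293T cells pretreated with a KDM4 inhibitor to raise proteome methylation, affinity-purified after ±UV, gel-resolved, trypsin-digested, with exclusive unique peptides per protein averaged per condition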
Assay type: binding, human
Settings: sheet "Final results but with 0.01"

Row | Molecule | Fold change (+UV/-UV)
1 | SYFA_HUMAN (protein, UniProt Q9Y285 2-508, looked up) Phenylalanine--tRNA ligase …: ADGQVAELLLRRLEASDGGLDSAELAAELGMEHQAVVGAVKSLQALGEVIEAELRSTKHWELTAEGEEIAREGSHEARVFRSIPPEGLAQSELMRLPSGKVGFSKAMSNKWIRVDKSAADGPRVFRVVDSMEDEVQRRLQLVRGGQAEKLGEKERSELRKRKLLAEVTLKTYWVSKGSAFSTSISKQETELSPEMISSGSWRDRPFKPYNFLAHGVLPDSGHLHPLLKVRSQFRQIFLEMGFTEMPTDNFIESSFWNFDALFQPQQHPARDQHDTFFLRDPAEALQLPMDYVQRVKRTHSQGGYGSQGYKYNWKLDEARKNLLRTHTTSASARALYRLAQKKPFTPVKYFSIDRVFRNETLDATHLAEFHQIEGVVADHGLTLGHLMGVLREFFTKLGITQLRFKPAYNPYTEPSMEVFSYHQGLKKWVEVGNSGVFRPEMLLPMGLPENVSVIAWGLSLERPTMIKYGINNIRELVGHKVNLQMVYDSPLCRLDAEPRPPPTQEAA | 4
2 | CPSF7_HUMAN (protein, UniProt Q8N684 1-471, looked up) Cleavage and polyadenylation …: MSEGVDLIDIYADEEFNQDPEFNNTDQIDLYDDVLTATSQPSDDRSSSTEPPPPVRQEPSPKPNNKTPAILYTYSGLRNRRAAVYVGSFSWWTTDQQLIQVIRSIGVYDVVELKFAENRANGQSKGYAEVVVASENSVHKLLELLPGKVLNGEKVDVRPATRQNLSQFEAQARKRECVRVPRGGIPPRAHSRDSSDSADGRATPSENLVPSSARVDKPPSVLPYFNRPPSALPLMGLPPPPIPPPPPLSSSFGVPPPPPGIHYQHLMPPPPRLPPHLAVPPPGAIPPALHLNPAFFPPPNATVGPPPDTYMKASAPYNHHGSRDSGPPPSTVSEAEFEDIMKRNRAISSSAISKAVSGASAGDYSDAIETLLTAIAVIKQSRVANDERCRVLISSLKDCLHGIEAKSYSVGASGSSSRKRHRSRERSPSRSRESSRRHRDLLHNEDRHDDYFQERNREHERHRDRERDRHH | 1
3 | SF3A3_HUMAN (protein, UniProt Q12874 1-501, looked up) Splicing factor 3A subunit 3: METILEQQRRYHEEKERLMDVMAKEMLTKKSTLRDQINSDHRTRAMQDRYMEVSGNLRDLYDDKDGLRKEELNAISGPNEFAEFYNRLKQIKEFHRKHPNEICVPMSVEFEELLKARENPSEEAQNLVEFTDEEGYGRYLDLHDCYLKYINLKASEKLDYITYLSIFDQLFDIPKERKNAEYKRYLEMLLEYLQDYTDRVKPLQDQNELFGKIQAEFEKKWENGTFPGWPKETSSALTHAGAHLDLSAFSSWEELASLGLDRLKSALLALGLKCGGTLEERAQRLFSTKGKSLESLDTSLFAKNPKSKGTKRDTERNKDIAFLEAQIYEYVEILGEQRHLTHENVQRKQARTGEEREEEEEEQISESESEDEENEIIYNPKNLPLGWDGKPIPYWLYKLHGLNINYNCEICGNYTYRGPKAFQRHFAEWRHAHGMRCLGIPNTAHFANVTQIEDAVSLWAKLKLQKASERWQPDTEEEYEDSSGNVVNKKTYEDLKRQGLL | 2
4 | NUCB1_HUMAN (protein, UniProt Q02818 27-461, looked up) Nucleobindin-1: VPLERGAPNKEETPATESPDTGLYYHRYLQEVIDVLETDGHFREKLQAANAEDIKSGKLSRELDFVSHHVRTKLDELKRQEVSRLRMLLKAKMDAEQDPNVQVDHLNLLKQFEHLDPQNQHTFEARDLELLIQTATRDLAQYDAAHHEEFKRYEMLKEHERRRYLESLGEEQRKEAERKLEEQQRRHREHPKVNVPGSQAQLKEVWEELDGLDPNRFNPKTFFILHDINSDGVLDEQELEALFTKELEKVYDPKNEEDDMREMEEERLRMREHVMKNVDTNQDRLVTLEEFLASTQRKEFGDTGEGWETVEMHPAYTEEELRRFEEELAAREAELNAKAQRLSQETEALGRSQGRLEAQKRELQQAVLHMEQRKQQQQQQQGHKAPAAHPEGQLKFHPDTDDVPVPAPAGDQKEVDTSEKKLLERLPEVEVPQHL | 3
5 | CACP_HUMAN (protein, UniProt P43155 1-626, looked up) Carnitine O-acetyltransferase: MLAFAARTVVKPLGFLKPFSLMKASSRFKAHQDALPRLPVPPLQQSLDHYLKALQPIVSEEEWAHTKQLVDEFQASGGVGERLQKGLERRARKTENWLSEWWLKTAYLQYRQPVVIYSSPGVMLPKQDFVDLQGQLRFAAKLIEGVLDFKVMIDNETLPVEYLGGKPLCMNQYYQILSSCRVPGPKQDTVSNFSKTKKPPTHITVVHNYQFFELDVYHSDGTPLTADQIFVQLEKIWNSSLQTNKEPVGILTSNHRNSWAKAYNTLIKDKVNRDSVRSIQKSIFTVCLDATMPRVSEDVYRSHVAGQMLHGGGSRLNSGNRWFDKTLQFIVAEDGSCGLVYEHAAAEGPPIVTLLDYVIEYTKKPELVRSPLVPLPMPKKLRFNITPEIKSDIEKAKQNLSIMIQDLDITVMVFHHFGKDFPKSEKLSPDAFIQMALQLAYYRIYGQACATYESASLRMFHLGRTDTIRSASMDSLTFVKAMDDSSVTEHQKVELLRKAVQAHRGYTDRAIRGEAFDRHLLGLKLQAIEDLVSMPDIFMDTSYAIAMHFHLSTSQVPAKTDCVMFFGPVVPDGYGVCYNPMEAHINFSLSAYNSCAETNAARLAHYLEKALLDMRALLQSHPRAKL | 0
6 | SF3B4_HUMAN (protein, UniProt Q15427 2-424, looked up) Splicing factor 3B subunit 4: AAGPISERNQDATVYVGGLDEKVSEPLLWELFLQAGPVVNTHMPKDRVTGQHQGYGFVEFLSEEDADYAIKIMNMIKLYGKPIRVNKASAHNKNLDVGANIFIGNLDPEIDEKLLYDTFSAFGVILQTPKIMRDPDTGNSKGYAFINFASFDASDAAIEAMNGQYLCNRPITVSYAFKKDSKGERHGSAAERLLAAQNPLSQADRPHQLFADAPPPPSAPNPVVSSLGSGLPPPGMPPPGSFPPPVPPPGALPPGIPPAMPPPPMPPGAAGHGPPSAGTPGAGHPGHGHSHPHPFPPGGMPHPGMSQMQLAHHGPHGLGHPHAGPPGSGGQPPPRPPPGMPHPGPPPMGMPPRGPPFGSPMGHPGPMPPHGMRGPPPLMPPHGYTGPPRPPPYGYQRGPLPPPRPTPRPPVPPRGPLRGPLPQ | 0.75
7 | HNRPR_HUMAN (protein, UniProt O43390 2-633, looked up) Heterogeneous nuclear …: ANQVNGNAVQLKEEEEPMDTSSVTHTEHYKTLIEAGLPQKVAERLDEIFQTGLVAYVDLDERAIDALREFNEEGALSVLQQFKESDLSHVQNKSAFLCGVMKTYRQREKQGSKVQESTKGPDEAKIKALLERTGYTLDVTTGQRKYGGPPPDSVYSGVQPGIGTEVFVGKIPRDLYEDELVPLFEKAGPIWDLRLMMDPLSGQNRGYAFITFCGKEAAQEAVKLCDSYEIRPGKHLGVCISVANNRLFVGSIPKNKTKENILEEFSKVTEGLVDVILYHQPDDKKKNRGFCFLEYEDHKSAAQARRRLMSGKVKVWGNVVTVEWADPVEEPDPEVMAKVKVLFVRNLATTVTEEILEKSFSEFGKLERVKKLKDYAFVHFEDRGAAVKAMDEMNGKEIEGEEIEIVLAKPPDKKRKERQAARQASRSTAYEDYYYHPPPRMPPPIRGRGRGGGRGGYGYPPDYYGYEDYYDDYYGYDYHDYRGGYEDPYYGYDDGYAVRGRGGGRGGRGAPPPPRGRGAPPPRGRAGYSQRGAPLGPPRGSRGGRGGPAQQQRGRGSRGSRGNRGGNVGGKRKADGYNQPDSKRRQTNNQQNWGSQPIAQQPLQQGGDYSGNYGYNNDNQEFYQDTYGQQWK | 2
8 | SYDC_HUMAN (protein, UniProt P14868 1-501, looked up) Aspartate--tRNA ligase, …: MPSASASRKSQEKPREIMDAAEDYAKERYGISSMIQSQEKPDRVLVRVRDLTIQKADEVVWVRARVHTSRAKGKQCFLVLRQQQFNVQALVAVGDHASKQMVKFAANINKESIVDVEGVVRKVNQKIGSCTQQDVELHVQKIYVISLAEPRLPLQLDDAVRPEAEGEEEGRATVNQDTRLDNRVIDLRTSTSQAVFRLQSGICHLFRETLINKGFVEIQTPKIISAASEGGANVFTVSYFKNNAYLAQSPQLYKQMCICADFEKVFSIGPVFRAEDSNTHRHLTEFVGLDIEMAFNYHYHEVMEEIADTMVQIFKGLQERFQTEIQTVNKQFPCEPFKFLEPTLRLEYCEALAMLREAGVEMGDEDDLSTPNEKLLGHLVKEKYDTDFYILDKYPLAVRPFYTMPDPRNPKQSNSYDMFMRGEEILSGAQRIHDPQLLTERALHHGIDLEKIKAYIDSFRFGAPPHAGGGIGLERVTMLFLGLHNVRQTSMFPRDPKRLTP | 2
9 | SYCM_HUMAN (protein, UniProt Q6PI48 48-645, looked up) Aspartate--tRNA ligase, …: VVRTNTCGELRSSHLGQEVTLCGWIQYRRQNTFLVLRDFDGLVQVIIPQDESAASVKKILCEAPVESVVQVSGTVISRPAGQENPKMPTGEIEIKVKTAELLNACKKLPFEIKNFVKKTEALRLQYRYLDLRSFQMQYNLRLRSQMVMKMREYLCNLHGFVDIETPTLFKRTPGGAKEFLVPSREPGKFYSLPQSPQQFKQLLMVGGLDRYFQVARCYRDEGSRPDRQPEFTQIDIEMSFVDQTGIQSLIEGLLQYSWPNDKDPVVVPFPTMTFAEVLATYGTDKPDTRFGMKIIDISDVFRNTEIGFLQDALSKPHGTVKAICIPEGAKYLKRKDIESIRNFAADHFNQEILPVFLNANRNWNSPVANFIMESQRLELIRLMETQEEDVVLLTAGEHNKACSLLGKLRLECADLLETRGVVLRDPTLFSFLWVVDFPLFLPKEENPRELESAHHPFTAPHPSDIHLLYTEPKKARSQHYDLVLNGNEIGGGSIRIHNAELQRYILATLLKEDVKMLSHLLQALDYGAPPHGGIALGLDRLICLVTGSPSIRDVIAFPKSFRGHDLMSNTPDSVPPEELKPYHIRVSKPTDSKAERAH | 1
10 | TCPB_HUMAN (protein, UniProt P78371 2-535, looked up) T-complex protein 1 subunit …: ASLSLAPVNIFKAGADEERAETARLTSFIGAIAIGDLVKSTLGPKGMDKILLSSGRDASLMVTNDGATILKNIGVDNPAAKVLVDMSRVQDDEVGDGTTSVTVLAAELLREAESLIAKKIHPQTIIAGWREATKAAREALLSSAVDHGSDEVKFRQDLMNIAGTTLSSKLLTHHKDHFTKLAVEAVLRLKGSGNLEAIHIIKKLGGSLADSYLDEGFLLDKKIGVNQPKRIENAKILIANTGMDTDKIKIFGSRVRVDSTAKVAEIEHAEKEKMKEKVERILKHGINCFINRQLIYNYPEQLFGAAGVMAIEHADFAGVERLALVTGGEIASTFDHPELVKLGSCKLIEEVMIGEDKLIHFSGVALGEACTIVLRGATQQILDEAERSLHDALCVLAQTVKDSRTVYGGGCSEMLMAHAVTQLANRTPGKEAVAMESYAKALRMLPTIIADNAGYDSADLVAQLRAAHSEGNTTAGLDMREGTIGDMAILGITESFQVKRQVLLSAAEAAEVILRVDNIIKAAPRKRVPDHHPC | 1
